# Experimental data taken from US20020098189A1 (AstraZeneca / MedImmune, published 2002).
# Experiments:
# [1] = molecular target: T1, F protein of respiratory syncytial virus (RSV-Long strain), on infectious virus (respiratory syncytial virus (RSV-Long …, UniProt P12568 26-574)); test: cell-based or functional assay
# [2] = molecular target: T2, C-terminal truncated RSV F protein, secreted from recombinant baculovirus-infected cells (respiratory syncytial virus (strain not …, UniProt P03420 26-526)); test: SPR (BIAcore), F protein immobilized, Fab injected
# T2 construct: also called F antigen of RSV
# Description: A typical kinetic study involved the injection of 35 ml of Mab at varying concentrations (25-300 nM) in PBS buffer containing 0.05% Tween-20 (PBS/Tween). The flow rate was maintained at 5 ml/min, giving a 7 min binding phase. Following the injection of Mab, the flow was exchanged with PBS/Tween buffer for 30 min for determining the rate of dissociation. The sensor chip was regenerated between cycles with a 2 min pulse of 10 mM HCI.
# More specifically, for measurement of kassoc (or kₒₙ), F protein was directly immobilized by the EDC/NHS method (EDC=N-ethyl-N′-[3-diethylaminopropyl)-carbodiimide). Briefly, 4 μg/ml of F protein in 10 mM NaOAc, pH 4.0 was prepared and about a 30 μl injection gives about 500 RU (response units) of immobilized F protein under the above referenced conditions. The blank flow cell (VnR immobilized-CM dextran surface) was subtracted for kinetic analysis. The column could be regenerated using 100 mM HCI (with 72 seconds of contact time being required for full regeneration). […] The dissociation phase was analyzed from 230 seconds (30 seconds after start of the dissociation phase) to 900 seconds. Kinetics were analyzed by 1:1 Langmuir fitting (global fitting). Measurements were done in HBS-EP buffer (10 mM HEPES, pH 7.4, 150 mM NaCl, 3 mM EDTA, 0.005% (v/v) Surfactant P20.
# For measuring k_{off (or k}dissoc) the following conditions were employed. Briefly, 4100 RU of F protein were immobilized (as above) with CM-dextran used as the blank. Here, 3000 RU of Fab was bound (with dissociated Fab high enough to offset machine fluctuation). […] The dissociation phase was 6-15 hours at a flow rate of 5 μl/min.
# [3] = molecular target: T1, F protein of respiratory syncytial …; test: cell-based or functional assay; remark: listed apart in the source
# [4] = molecular target: T2, C-terminal truncated RSV F protein, …; test: SPR (BIAcore), F protein immobilized, whole antibody injected
# T2 sequence (P03420 26-526): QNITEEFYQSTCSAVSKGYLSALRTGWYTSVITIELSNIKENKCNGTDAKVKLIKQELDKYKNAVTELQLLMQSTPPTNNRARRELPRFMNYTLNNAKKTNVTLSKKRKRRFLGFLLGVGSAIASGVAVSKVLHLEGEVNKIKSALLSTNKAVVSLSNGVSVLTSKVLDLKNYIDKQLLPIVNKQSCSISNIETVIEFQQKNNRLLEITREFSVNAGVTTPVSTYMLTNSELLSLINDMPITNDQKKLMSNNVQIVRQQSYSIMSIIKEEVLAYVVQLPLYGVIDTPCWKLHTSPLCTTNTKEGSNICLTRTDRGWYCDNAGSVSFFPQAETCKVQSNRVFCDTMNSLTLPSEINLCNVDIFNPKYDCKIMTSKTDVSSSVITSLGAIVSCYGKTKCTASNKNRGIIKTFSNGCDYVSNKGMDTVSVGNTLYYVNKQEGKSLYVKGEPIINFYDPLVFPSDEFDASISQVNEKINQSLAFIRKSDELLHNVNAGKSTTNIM
Binder,"EC50 (nM), RSV microneutralization [1]",koff [2],kon [2],"Mean IC50 µg/ml, RSV microneutralization [3]","Mean IC50 (Control) µg/ml, RSV microneutralization [3]",koff [4],kon [4]
"Clone 6 (Fab) (Fab, V domains shown) VH: QVTLRESGPALVKPTQTLTLTCTFSGFSLSTAGMSVGWIRQPPGKALEWLADIWWDDKKDYNPSLKSRLTISKDTSKNQVVLKVTNMDPADTATYYCARSMITNFYFDVWGQGTTVTVSS VL: DIQMTQSPSTLSASVGDRVTITCSASSSVGYMHWYQQKPGKAPKLLIYDTFKLASGVPSRFSGSGSGTEFTLTISSLQPDDFATYYCFQGSFYPFTFGGGTKVEIK",2.88 nM,0.00032 s⁻¹,185000 M⁻¹ s⁻¹,,,,
"Clone 15 (Fab) (Fab, V domains shown) VH: QVTLRESGPALVKPTQTLTLTCTFSGFSLSTAGMSVGWIRQPPGKALEWLADIWWDGKKSYNPSLKDRLTISKDTSKNQVVLKVTNMDPADTATYYCARDMIFNFYFDVWGQGTTVTVSS VL: DIQMTQSPSTLSASVGDRVTITCSLSSRVGYMHWYQQKPGKAPKLLIYDTMYQSSGVPSRFSGSGSGTEFTLTISSLQPDDFATYYCFQGSGYPFTFGGGTKVEIK",0.56 nM,0.00028 s⁻¹,781000 M⁻¹ s⁻¹,0.0264 µg/mL,0.0258 µg/mL,,
"Clone 17 (whole monoclonal antibody) (antibody, V domains shown) VH: QVTLRESGPALVKPTQTLTLTCTFSGFSLSTAGMSVGWIRQPPGKALEWLADIWWDDKKDYNPSLKSRLTISKDTSKNQVVLKVTNMDPADTATYYCARSMITNFYFDVWGAGTTVTVSS VL: DIQMTQSPSTLSASVGDRVTITCSASSSVGYMHWYQQKPGKAPKLLIYDTFKLASGVPSRFSGSGSGTEFTLTISSLQPDDFATYYCFQGSFYPFTFGGGTKLEIK",2.7 nM,,,,,0.000249 s⁻¹,109000 M⁻¹ s⁻¹
"Clone 11 (Fab) (Fab, V domains shown) VH: QVTLRESGPALVKPTQTLTLTCTFSGFSLSTPGMSVGWIRQPPGKALEWLADIWWDGKKHYNPSLKDRLTISKDTSKNQVVLKVTNMDPADTATYYCARDMIFNFYFDVWGQGTTVTVSS VL: DIQMTQSPSTLSASVGDRVTITCSPSSRVGYMHWYQQKPGKAPKLLIYDTMRLASGVPSRFSGSGSGTEFTLTISSLQPDDFATYYCFQGSGYPFTFGGGTKVEIK",20.9 nM,0.000717 s⁻¹,571000 M⁻¹ s⁻¹,> 1 µg/mL,> 1 µg/mL,,
"Clone 7 (Fab) (Fab, V domains shown) VH: QVTLRESGPALVKPTQTLTLTCTFSGFSLSTAGMSVGWIRQPPGKALEWLADIWWDDKKDYNPSLKSRLTISKDTSKNQVVLKVTNMDPADTATYYCARDMITNFYFDVWGQGTTVTVSS VL: DIQMTQSPSTLSASVGDRVTITCSASSRVGYMHWYQQKPGKAPKLLIYDTFKLASGVPSRFSGSGSGTEFTLTISSLQPDDFATYYCFQGSGYPFTFGGGTKVEIK",1.59 nM,0.000251 s⁻¹,370000 M⁻¹ s⁻¹,,,,
"MEDI-493 (clone 16), IgG1 (COR)/kappa (K102) humanized MAb (antibody, V domains shown) VH: QVTLRESGPALVKPTQTLTLTCTFSGFSLSTSGMSVGWIRQPPGKALEWLADIWWDDKKDYNPSLKSRLTISKDTSKNQVVLKVTNMDPADTATYYCARSMITNWYFDVWGAGTTVTVSS VL: DIQMTQSPSTLSASVGDRVTITCKCQLSVGYMHWYQQKPGKAPKLLIYDTSKLASGVPSRFSGSGSGTEFTLTISSLQPDDFATYYCFQGSGYPFTFGGGTKLEIK",6.12 nM,,,0.453 µg/mL,0.535 µg/mL,0.000735 s⁻¹,204000 M⁻¹ s⁻¹
"Clone 9 (Fab) (Fab, V domains shown) VH: QVTLRESGPALVKPTQTLTLTCTFSGFSLSTPGMSVGWIRQPPGKALEWLADIWWDDKKHYNPSLKDRLTISKDTSKNQVVLKVTNMDPADTATYYCARDMIFNFYFDVWGQGTTVTVSS VL: DIQMTQSPSTLSASVGDRVTITCSLSSRVGYMHWYQQKPGKAPKLLIYDTFYLSSGVPSRFSGSGSGTEFTLTISSLQPDDFATYYCFQGSGYPFTFGGGTKVEIK",0.29 nM,0.000282 s⁻¹,663000 M⁻¹ s⁻¹,0.0407 µg/mL,0.0326 µg/mL,,
"Clone 14 (Fab) (Fab, V domains shown) VH: QVTLRESGPALVKPTQTLTLTCTFSGFSLSTAGMSVGWIRQPPGKALEWLADIWWDDKKHYNPSLKDRLTISKDTSKNQVVLKVTNMDPADTATYYCARDMIFNWYFDVWGQGTTVTVSS VL: DIQMTQSPSTLSASVGDRVTITCSPSSRVGYMHWYQQKPGKAPKLLIYDTYRHSSGVPSRFSGSGSGTEFTLTISSLQPDDFATYYCFQGSGYPFTFGGGTKVEIK",2.23 nM,0.00025 s⁻¹,735000 M⁻¹ s⁻¹,0.12 µg/mL,0.102 µg/mL,,
"Clone 13 (Fab) (Fab, V domains shown) VH: QVTLRESGPALVKPTQTLTLTCTFSGFSLSTAGMSVGWIRQPPGKALEWLADIWWDGKKDYNPSLKDRLTISKDTSKNQVVLKVTNMDPADTATYYCARDMIFNFYFDVWGQGTTVTVSS VL: DIQMTQSPSTLSASVGDRVTITCSASSRVGYMHWYQQKPGKAPKLLIYDTFKLSSGVPSRFSGSGSGTEFTLTISSLQPDDFATYYCFQGSGYPFTFGGGTKVEIK",0.81 nM,0.00023 s⁻¹,743000 M⁻¹ s⁻¹,0.0287 µg/mL,0.031 µg/mL,,
"Clone 10 (Fab) (Fab, V domains shown) VH: QVTLRESGPALVKPTQTLTLTCTFSGFSLSTPGMSVGWIRQPPGKALEWLADIWWDGKKHYNPSLKDRLTISKDTSKNQVVLKVTNMDPADTATYYCARDMIFNFYFDVWGQGTTVTVSS VL: DIQMTQSPSTLSASVGDRVTITCSLSSRVGYMHWYQQKPGKAPKLLIYDTRGLPSGVPSRFSGSGSGTEFTLTISSLQPDDFATYYCFQGSGYPFTFGGGTKVEIK",1.06 nM,0.000299 s⁻¹,527000 M⁻¹ s⁻¹,0.0464 µg/mL,0.0351 µg/mL,,
"Clone 8 (Fab) (Fab, V domains shown) VH: QVTLRESGPALVKPTQTLTLTCTFSGFSLSTAGMSVGWIRQPPGKALEWLADIWWDDKKDYNPSLKSRLTISKDTSKNQVVLKVTNMDPADTATYYCARDMITNFYFDVWGQGTTVTVSS VL: DIQMTQSPSTLSASVGDRVTITCSASSSVGYMHWYQQKPGKAPKLLIYDTFRLASGVPSRFSGSGSGTEFTLTISSLQPDDFATYYCFQGSGYPFTFGGGTKVEIK",2.67 nM,0.000273 s⁻¹,375000 M⁻¹ s⁻¹,,,,
"Clone 12 (Fab) (Fab, V domains shown) VH: QVTLRESGPALVKPTQTLTLTCTFSGFSLSTAGMSVGWIRQPPGKALEWLADIWWDGKKHYNPSLKDRLTISKDTSKNQVVLKVTNMDPADTATYYCARDMIFNFYFDVWGQGTTVTVSS VL: DIQMTQSPSTLSASVGDRVTITCSLSSRVGYMHWYQQKPGKAPKLLIYDTFKLSSGVPSRFSGSGSGTEFTLTISSLQPDDFATYYCFQGSGYPFTFGGGTKVEIK",3.24 nM,0.000453 s⁻¹,790000 M⁻¹ s⁻¹,0.157 µg/mL,0.125 µg/mL,,
